Laboratory results taken from paper PMC6477152 (2019).

B1: FIP200ΔN1115:Luciferase [human] / GST:NAP1aa5–75 [human] (parent complex)
chain 1: ENYQVGLAELRTLMTIEKDQCISELISRHEEESNILKAELNKVTSLHNQAFEIEKNLKEQIIELQSKLDSELSALERQKDEKITQQEEKYEAIIQNLEKDRQKLVSSQEQDREQLIQKLNCEKDEAIQTALKEFKLEREVVEKELLEKVKHLENQIAKSPAIDSTRGDSSSLVAELQEKLQEEKAKFLEQLEEQEKRKNEEMQNVRTSLIAEQQTNFNTVLTREKMRKENIINDLSDKLKSTMQQQERDKDLIESLSEDRARLLEEKKKLEEEVSKLRSSSFVPSPYVATAPELYGACAPELPGESDRSAVETADEGRVDSAMETSMMSVQENIHMLSEEKQRIMLLERTLQLKEEENKRLNQRLMSQSMSSVSSRHSEKIAIRDFQVGDLVLIILDERHDNYVLFTVSPTLYFLHSESLPALDLKPGEGASGASRRPWVLGKVMEKEYCQAKKAQNRFKVPLGTKFYRVKAVSWNKKV
chain 2: VEDDICILNHEKAHKRDTVTPVSIYSGDESVASHFALVTAYEDIKKRLKDSEKENSLLKKRIRFLEEKLIA
B2: FIP200ΔN1115:Luciferase [human] / GST:NDP52 [human] (parent complex)
chain 1: B1 chain 1
chain 2: MEETIKDPPTSAVLLDHCHFSQVIFNSVEKFYIPGGDVTCHYTFTQHFIPRRKDWIGIFRVGWKTTREYYTFMWVTLPIDLNNKSAKQQEVQFKAYYLPKDDEYYQFCYVDEDGVVRGASIPFQFRPENEEDILVVTTQGEVEEIEQHNKELCKENQELKDSCISLQKQNSDMQAELQKKQEELETLQSINKKLELKVKEQKDYWETELLQLKEQNQKMSSENEKMGIRVDQLQAQLSTQEKEMEKLVQGDQDKTEQLEQLKKENDHLFLSLTEQRKDQKKLEQTVEQMKQNETTAMKKQQELMDENFDLSKRLSENEIICNALQRQKERLEGENDLLKRENSRLLSYMGLDFNSLPYQVPTSDEGGARQNPGLAYGNPYSGIQESSSPSPLSIKKCPICKADDICDHTLEQQQMQPLCFNCPICDKIFPATEKQIFEDHVFCHSL

Variants of: B1
Assay: LUMIER assay; HEK293ET cell lysates; read off a plot

| Variant | response [fold binding] |
| --- | --- |
| chain 1 N457S | ~1.4 |
| chain 1 V461S | ~1.7 |
| chain 1 F459S | ~1.4 |
| chain 1 A452S | ~12 |

Variants of: B2
Assay: LUMIER assay; HEK293ET cell lysates; bacterially expressed GST bait; read off a plot

| Variant | response [fold binding] |
| --- | --- |
| chain 1 V461S | ~50 |
| chain 1 L353A | ~32 |
| chain 1 R349A | ~33 |
| chain 1 A452S | ~22 |
| chain 1 L351A | ~38 |
| chain 1 F459S | ~52 |
| chain 1 N457S | ~15 |
| chain 1 E348A | ~49 |
| chain 1 Q352A | ~44 |
| chain 1 L347A | ~42 |
| chain 1 T350A | ~51 |
